One molecule from publication doi:10.1101/2021.05.10.443412 can be followed below.

For test [1], the target named is T1, factor inhibiting HIF-1 (FIH-1), full-length (human), Q9NWT6. As to the kind of experiment: SEC. To be noted: remark: other sources report otherwise.
The target of test [2] is T1, factor inhibiting HIF-1 (FIH-1), …. As to the kind of experiment: SEC-MALS. To be noted: remark: other sources report otherwise. In general terms: In gel filtration, larger molecules generally elute earlier.

B1: factor inhibiting HIF-1 (FIH-1), full-length, Q9NWT6 1-349 (enzyme)
chain: MAATAAEAVASGSGEPREEAGALGPAWDESQLRSYSFPTRPIPRLSQSDPRAEELIENEEPVVLTDTNLVYPALKWDLEYLQENIGNGDFSVYSASTHKFLYYDEKKMANFQNFKPRSNREEMKFHEFVEKLQDIQQRGGEERLYLQQTLNDTVGRKIVMDFLGFNWNWINKQQGKRGWGQLTSNLLLIGMEGNVTPAHYDEQQNFFAQIKGYKRCILFPPDQFECLYPYPVHHPCDRQSQVDFDNPDYERFPNFQNVVGYETVVGPGDVLYIPMYWWHHIESLLNGGITITVNFWYKGAPTPKRIEYPLKAHQKVAIMRNIEKMLGEALGNPQEVGPLLNTMIKGRYN
Broadly, the stoichiometry N is a count of units in the complex or per binding partner. On to B1, for which the stoichiometry N in test [1] and in test [2] was 2 in each case.
